Results published in patent US20220332764A1, “T CELL EPITOPES OF HCMV AND USES OF THEREOF” (EBERHARD KARLS UNIVERSITÄT TÜBINGEN, priority 2019, published 2022).

Legend:
Test in all cases: cell-based or functional assay
HLA-B*07:02 (human) = molecular target: HLA-B*07:02 (human)
HLA-B*08:01 (human) = molecular target: HLA-B*08:01 (human)
HLA-B*51:01 (human) = molecular target: HLA-B*51:01 (human)

Row | % Positive donors (after 12 days of stimulation), IFNγ ELISpot (HLA-B*07:02 (human)) | % Positive donors (after 12 days of stimulation), IFNγ ELISpot (HLA-B*08:01 (human)) | % Positive donors (after 12 days of stimulation), IFNγ ELISpot (HLA-B*51:01 (human)) | Binder
1 | 25% | 90.9% |  | LPHERHREL (modifications not checked) [UL34 180-188 …]
2 |  | 68.8% | 62.5% | LPYPRGYTL (modifications not checked) [UL26 61-69 …]
